In patent publication US20090291088A1, “THERAPEUTIC COMBINATIONS OF ANTI-IGF-1R ANTIBODIES AND OTHER COMPOUNDS” (Biogen Idec MA Inc., priority 2008, published 2009):

Molecular target: T1, recombinant human IGF-1R-10His (Homo sapiens, UniProt P08069)
T1 construct: denoted hIGF-1R(1-902)-His10, was purchased from R&D systems (Cat. No. 305-GR-050); purchased R&D Systems 305-GR-050
Assay: SPR, antibodies and Fabs on IGF-1R-His captured via PENTA-His antibody
Format: binding
Conditions: Fab fragment; 25° C.
Method: Method: The binding activity of M13-C06, M14-C03, and […] to soluble IGF-1R was measured using surface plasmon resonance. Biotinylated PENTA-His Antibody (Qiagen, Inc.) was immobilized onto a Streptavidin coated Sensor Chip. Soluble/Dimeric IGF-1R-His ectodomain (R&D systems, Inc.) was captured on the surface via the PENTA-His antibody. Secondary injections of M13-C06, M14-C03, or M14-G11 Fabs (0.5 nM-100nM) were performed. The surfaces were regenerated with three short injections of acetate, pH 4.0.
M13-C06, M14-C03, and M14-G11 Fab antibodies were prepared by digestion with immobilized papain (Pierce Cat. No. 20341 (Pierce Biotechnology, Inc., Rockford, Ill.)). The papain resin was washed with 20 mM sodium phosphate pH 7.0; 10 mM EDTA; 20 mM Cysteine. Antibodies were mixed with the papain resin in 500 mM EDTA, 100 mM Cysteine pH 7.0 and digested for three hours in a 37° C. water bath followed by mixing on an inverting shaker overnight at room temperature. Completion of each digestion was determined by analytical size exclusion chromatography (SEC). The resin was removed from the digested protein with a sintered glass funnel filter and washed with 20 mM acetate pH 5.0. The flowthrough was collected and diluted 10-fold with 20 mM acetate pH 5.0. Fab fragments were purified by S-SEPHAROSE™ cation exchange chromatography using a linear salt gradient. […]

ka: 190000 M⁻¹ s⁻¹
kd: 0.00094 s⁻¹
B1: M14-C03_Fab (antibody, V domains shown)
VH: EVQLLESGGGLVQPGGSLRLSCAASGFTFSKYMMSWVRQAPGKGLEWVSYISPSGGLTWYADSVKGRFTISRDNSKNTLYLQMNSLRAEDTAVYYCARDGARGYGMDVWGQGTTVTVSS
VL: DIQMTQSPATLSLSPGERATLSCRASQSVSSYLAWYQQKPGQAPRLLIYDASNRATGIPARFSGSGSGTDFTLTISSLEPEDFAVYYCQQRSNWPPEVTFGPGTKVDIK
